The values that follow come from patent publication US9688732B2, “Extracellular matrix metalloproteinase inducer (EMMPRIN) peptides and binding antibodies” (Rappaport Family Institute for Research in the Medical …, priority 2012, dated 2017).

For this assay, the target named is T1, Mouse recombinant EMMPRIN (mrEMMPRIN) (Mus musculus, UniProt P18572).
T1 construct: mrEMMPRIN is a chimeric protein composed of the extracellular portion of EMMPRIN fused to the Fc portion of human IgG; purchased R&D Systems
Nature of the assay: Indirect ELISA, specificity of the antibodies to EMMPRIN. The note with it: mrEMMPRIN 200 ng/ml coat; OD of Fc binding subtracted; n=4. As to the method:
Indirect ELISA: This assay was developed to determine the specificity of the polyclonal antibodies for the EMMPRIN protein. Mouse recombinant EMMPRIN (mrEMMPRIN, 200 ng/ml in PBS, R&D Systems) or the Fc portion of the human IgG were applied on wells of a 96-well plate and incubated at 4° C. overnight to coat the wells. Excess antigens were removed by washing three times with wash buffer (0.05% Tween-20 in PBS), followed by blocking of the remaining free protein-binding sites with blocking buffer (1% BSA in PBS) for 2 hours at room temperature. After additional washes, strips of mouse recombinant EMMPRIN or Fc were coated with each of the primary antibodies (immune or pre-immune sera) diluted 1:500 and 1:5000 in PBS, and incubated for 2 hours at room temperature. […] The reaction was stopped with stop solution (0.25M HCL), and the absorbance of each well was measured at 450 nm and at a reference of 540 nm. […]
The specificity and ability of the antibodies to recognize mrEMMPRIN in its native structure were also tested by indirect ELISA, using mrEMMPRIN (200 ng/ml) or human IgG Fc protein (hFC, 200 ng/ml) to coat 96-well plates. […] P values were calculated by the Mann-Whitney T test. **, p<0.01, relative to pre-immune sera. […]
(In general: An ELISA detects its analyte on a solid surface through an enzyme-linked reagent.)

T1 sequence (P18572 with tags, fused parts or gaps isoform P18572-2 limits assumed): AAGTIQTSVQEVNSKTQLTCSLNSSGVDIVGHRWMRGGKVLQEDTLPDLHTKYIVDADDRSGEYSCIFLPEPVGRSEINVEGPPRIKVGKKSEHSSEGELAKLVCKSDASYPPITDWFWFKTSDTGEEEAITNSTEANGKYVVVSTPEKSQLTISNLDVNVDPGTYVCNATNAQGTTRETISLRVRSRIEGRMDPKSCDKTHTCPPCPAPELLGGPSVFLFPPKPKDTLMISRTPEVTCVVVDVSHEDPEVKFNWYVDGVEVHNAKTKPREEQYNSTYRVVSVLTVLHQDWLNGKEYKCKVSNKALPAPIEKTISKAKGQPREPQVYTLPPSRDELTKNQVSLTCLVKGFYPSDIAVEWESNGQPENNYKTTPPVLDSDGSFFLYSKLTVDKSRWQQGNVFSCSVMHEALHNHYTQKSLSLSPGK

Turning to “GHRWMRGGKVLC [Peptide 161, 12aa peptide from the EC-I domain of mouse EMMPRIN]”, the “Immune sera (OD values, indirect ELISA)” value amounted to 0.052 ± 0.026.
